Data on 2 molecules can be found in US8158376B2, “Bisubstrate fluorescent probe binding to protein kinases” (University of Tartu, priority 2006, dated 2012).

Some results are limits rather than exact numbers.

One series addresses MSK1 (Homo sapiens, UniProt O75582). The series can be described thus: Kinase selectivity panel. The format is biochemical. Particulars: inhibitor 1 μM; ATP 20 μM; read-out: residual activity (%) MSK1. Summed up:
(§1)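 52-kinase panel; assays run at 30° C.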

For another series, the target named is PKA (Homo sapiens, UniProt P17612). The series can be described thus: Kinase selectivity panel. In kind it is biochemical. The following applies: inhibitor 1 μM; ATP 20 μM; read-out: residual activity (%) PKA. Summed up: as §1
The target in another series is ROCK-II (Homo sapiens, UniProt O75116). The series is described as follows: Kinase selectivity panel. In kind it is biochemical. Particulars: inhibitor 1 μM; ATP 20 μM; read-out: residual activity (%) ROCK-II. A digest of the protocol: as §1
The next series deals with cAPK Cα (Homo sapiens, UniProt P17612). The series can be described thus: Competition: displacement of ARC-TAMRA from complex with cAPK Cα, fluorescence anisotropy, LS 55. The format is binding. The arrangement: purchased Biaffin AG. How it is done:
A complex was created between 10 nM of ARC-TAMRA and 10 nM of cAPK Cα in 0.500 ml of buffer (50 mM HEPES, 200 mM NaCl, 0.5 g/l BSA, 5 mM DTT, 0.05% TWEEN 20, MilliQ water; pH 7.4). Different compounds were screened for binding to cAPK Cα against fixed concentrations of ARC-TAMRA and cAPK Cα (FIG. 4). 1-3 μl quantities of various dilutions of the solution of the inhibitor were added to 500 μl solution of ARC-TAMRA complex with the kinase and fluorescence anisotropy was measured after each addition of the […] after 10 min delay time.
For orientation: In fluorescence polarisation assays a small probe gives low polarisation when free and higher when bound to something large.

Chain of MSK1 (O75582 whole entry, species assumed): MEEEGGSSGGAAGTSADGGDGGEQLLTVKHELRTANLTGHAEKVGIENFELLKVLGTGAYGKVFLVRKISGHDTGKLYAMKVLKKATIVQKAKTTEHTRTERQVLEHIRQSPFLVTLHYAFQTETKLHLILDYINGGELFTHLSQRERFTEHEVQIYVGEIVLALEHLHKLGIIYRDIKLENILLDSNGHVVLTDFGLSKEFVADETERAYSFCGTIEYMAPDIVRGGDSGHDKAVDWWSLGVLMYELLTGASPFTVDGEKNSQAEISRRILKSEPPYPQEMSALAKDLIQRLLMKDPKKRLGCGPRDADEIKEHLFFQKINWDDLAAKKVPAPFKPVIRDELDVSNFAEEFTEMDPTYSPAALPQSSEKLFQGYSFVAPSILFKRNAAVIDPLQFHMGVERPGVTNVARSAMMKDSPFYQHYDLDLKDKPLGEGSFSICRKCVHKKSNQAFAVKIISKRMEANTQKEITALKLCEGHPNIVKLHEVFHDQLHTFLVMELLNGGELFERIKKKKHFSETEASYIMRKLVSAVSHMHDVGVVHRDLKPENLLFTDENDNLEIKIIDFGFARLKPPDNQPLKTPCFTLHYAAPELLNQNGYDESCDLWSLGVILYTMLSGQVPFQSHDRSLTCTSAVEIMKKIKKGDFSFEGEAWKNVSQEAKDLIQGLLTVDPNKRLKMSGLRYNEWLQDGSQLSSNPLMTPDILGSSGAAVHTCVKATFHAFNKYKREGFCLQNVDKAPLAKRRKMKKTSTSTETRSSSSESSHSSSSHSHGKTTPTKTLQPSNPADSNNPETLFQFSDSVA
Chain of ROCK-II (O75116 whole entry, species assumed): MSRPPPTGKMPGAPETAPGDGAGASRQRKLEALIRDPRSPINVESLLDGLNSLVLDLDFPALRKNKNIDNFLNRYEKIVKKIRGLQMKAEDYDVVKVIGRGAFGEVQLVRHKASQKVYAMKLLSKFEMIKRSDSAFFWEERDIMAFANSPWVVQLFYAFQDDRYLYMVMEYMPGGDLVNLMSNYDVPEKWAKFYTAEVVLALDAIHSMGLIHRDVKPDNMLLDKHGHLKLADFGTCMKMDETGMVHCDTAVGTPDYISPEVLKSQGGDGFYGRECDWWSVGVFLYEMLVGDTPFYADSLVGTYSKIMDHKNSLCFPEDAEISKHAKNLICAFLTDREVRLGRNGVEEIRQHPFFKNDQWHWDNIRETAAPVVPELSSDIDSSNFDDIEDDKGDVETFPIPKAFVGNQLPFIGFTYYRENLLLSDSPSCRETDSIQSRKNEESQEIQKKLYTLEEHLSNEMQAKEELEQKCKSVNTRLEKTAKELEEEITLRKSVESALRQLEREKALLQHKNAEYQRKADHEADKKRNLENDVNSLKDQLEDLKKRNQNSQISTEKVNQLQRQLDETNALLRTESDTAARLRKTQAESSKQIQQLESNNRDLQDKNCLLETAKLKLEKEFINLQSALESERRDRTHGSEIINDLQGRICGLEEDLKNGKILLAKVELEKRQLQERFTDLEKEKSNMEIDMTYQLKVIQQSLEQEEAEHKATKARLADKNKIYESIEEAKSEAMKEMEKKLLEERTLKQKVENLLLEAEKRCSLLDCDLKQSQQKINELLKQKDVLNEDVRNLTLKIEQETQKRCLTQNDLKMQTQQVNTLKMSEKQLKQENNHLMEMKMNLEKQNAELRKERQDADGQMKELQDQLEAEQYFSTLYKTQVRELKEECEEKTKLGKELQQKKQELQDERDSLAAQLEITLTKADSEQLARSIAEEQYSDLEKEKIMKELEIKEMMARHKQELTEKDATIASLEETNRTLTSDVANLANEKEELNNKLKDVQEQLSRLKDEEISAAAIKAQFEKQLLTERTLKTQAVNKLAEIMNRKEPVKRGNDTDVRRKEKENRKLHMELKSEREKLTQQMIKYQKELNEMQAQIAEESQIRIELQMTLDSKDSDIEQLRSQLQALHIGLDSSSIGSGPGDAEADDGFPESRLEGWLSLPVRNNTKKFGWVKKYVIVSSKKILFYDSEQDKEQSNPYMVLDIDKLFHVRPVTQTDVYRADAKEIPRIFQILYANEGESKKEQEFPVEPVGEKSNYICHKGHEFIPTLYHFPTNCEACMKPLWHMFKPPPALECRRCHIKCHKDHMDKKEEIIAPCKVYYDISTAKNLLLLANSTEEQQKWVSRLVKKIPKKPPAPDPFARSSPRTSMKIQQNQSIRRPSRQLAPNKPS

Turning to `N=C(N)NCCC[C@@H](NC(=O)[C@@H](CCCNC(=N)N)NC(=O)[C@@H](CCCNC(=N)N)NC(=O)[C@@H](CCCNC(=N)N)NC(=O)[C@@H](CCCNC(=N)N)NC(=O)[C@@H](CCCNC(=N)N)NC(=O)CCCCCNCCNS(=O)(=O)c1cccc2cnccc12)C(N)=O` [Compound 26, H9-Hex(D-Arg)6-NH2], the remaining activity at 1 µM is 1% in the series with MSK1, less than 10% with PKA and 0% in the series with ROCK-II.
For `N=C(N)NCCC[C@@H](NC(=O)[C@@H](CCCNC(=N)N)NC(=O)[C@@H](CCCNC(=N)N)NC(=O)[C@@H](CCCNC(=N)N)NC(=O)[C@@H](CCCNC(=N)N)NC(=O)[C@@H](CCCNC(=N)N)NC(=O)CCCCCNC(=O)[C@H]1O[C@@H](n2cnc3c(N)ncnc32)[C@H](O)[C@@H]1O)C(N)=O` [Compound 5, AdcAhx(D-Arg)6-NH2], the IC50 (usually the concentration at which inhibition is half-maximal) at cAPK Cα (10 nM ARC-TAMRA, 10 nM cAPK Cα) amounted to 35 nM. Further, the Kd (commonly the concentration at which binding is half-saturated) at cAPK Cα (cAPK Cα displacement, read-out: Kd of inhibitor (characterized with the probe)) stood at 2.5 nM. The Ki (commonly a measure of affinity in units of concentration, obtained from inhibition or displacement) at cAPK Cα (read-out: Ki (competitive binding)) turned out to be 2.5 nM.
